Test results as given in the supplement of paper PMC10567573.
± gives the standard deviation.

Experiment: protein stability index of a GFP-peptide fusion (GPS, HEK-293T) (PSI 1-6); higher = more stable
Conditions: c terminus: a fixed tail appended
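Also: 24-mer peptide tiles fused after GFP, lentivirally expressed, FACS-sorted into six equal bins by GFP/DsRed ratio, decoded by Illumina sequencing, PSI is the read-weighted mean bin number.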

Sequence | protein stability index (treatment: DMSO) | protein stability index (treatment: MLN4924 1 uM, 8 h)
LYGQRNSAPEQELLVQDATPVSNS [GFOD1] | 4.82 ± 0.098 | 4.76 ± 0.11
HVKETQPPETVQNWIELLSGETWN [GOLPH3] | 3.67 ± 0.36 | 3.86 ± 0.41
CRFNQDPEAVDEDRSTEPDRLQVF [ATE1] | 4.54 ± 0.18 | 4.55 ± 0.2
RLVELAGQSLLKDEALAIAALELL [PRAME] | 2.17 ± 0.47 | 2.02 ± 0.44
LLESLNQQRLQGQLCDVSIRVQGR [ZBTB22] | 2.59 ± 0.21 | 2.67 ± 0.21
MRSGEPACTMDQARGLDDAAARGG [ZBED3] | 5 ± 0.23 | 5.06 ± 0.15
LEPLSLPESPGGTTTLEGSPSVPC [ZNF277] | 5.22 ± 0.16 | 5.3 ± 0.14
VLELHHSKLDTTKALNLLPANTQI [VPS39] | 3.03 ± 0.14 | 3.12 ± 0.15
APRLLKREPDWGDGDAPGSLLPAQ [CEBPD] | 4.87 ± 0.43 | 5.03 ± 0.37
HKLVSASTDNIVSQWDVLSGDCDQ [RBBP5] | 4.73 ± 0.18 | 4.68 ± 0.11
SDQVKISEEALRADGFGDNPFYHC [SAT2] | 4.16 ± 0.28 | 4.25 ± 0.24
PQPNYADTLISQESCEKNDPLSLL [PCDHGA10] | 4.83 ± 0.11 | 4.85 ± 0.17
QHGQLGTNTRRGSRAPCKVQGLEG [NEK8] | 4.18 ± 0.15 | 4.19 ± 0.19
LIQPQDQSCWAFLPDLCLCRVFWW [FBXO39] | 2.88 ± 0.78 | 2.9 ± 0.55
TAEKRKRLGELFNPYYDPLQWKSS [CHGB] | 2.54 ± 0.17 | 2.93 ± 0.34
ASHSLSPSEHVQGKSPVNMVTVAM [ZNF649] | 3.3 ± 0.29 | 3.21 ± 0.35
LINKMLTINPSKRITAAEALKHPW [CAMK2A] | 2.16 ± 0.11 | 2.17 ± 0.18
RVQVLKNEVRRGSPVLLGWVEQAY [TIAF1] | 2.37 ± 0.18 | 2.21 ± 0.37
RYVFEAVIRWIAHDTEIRKVHMKD [GAN] | 2.74 ± 0.84 | 2.4 ± 0.65
QNHGQHLILSREASWAKPHYEFNL [LCOR] | 2.28 ± 0.23 | 2.51 ± 0.35
TACKPVIRVPSVPPVPCVPSVPCT [KRT36] | 3.15 ± 0.28 | 3.27 ± 0.2
TGLSGGKRPSQEEDTQSIGPKVQR [CRY1] | 5 ± 0.33 | 5.04 ± 0.23
TRTTSFKGTSPSSKYVKLNVGGAL [KCTD10] | 3.01 ± 0.41 | 2.87 ± 0.28

Sequence | protein stability index (treatment: DMSO) | protein stability index (treatment: MLN4924 1 uM, 8 h)
MTEEVIVIAKWDYTAQQDQELDIK [NCK2] | 2.92 ± 0.29 | 2.97 ± 0.33
KEVPVVHTETKTITYESSQVDPGT [EPB41L3] | 5.33 ± 0.42 | 5.2 ± 0.25
HGRIPDPDDFVPPVPPPSYFATFY [FAM189A2] | 2.24 ± 0.25 | 2.23 ± 0.34
VLNEEGICTQKCALNWTDIPVAME [VPS39] | 3.43 ± 0.18 | 3.39 ± 0.28
VERALQLPREPGDSAQFTKALAII [FEM1A] | 3.1 ± 0.051 | 2.8 ± 0.31
TSASLLNAGLSHTEYQIVTDPGDV [SLC2A12] | 4.42 ± 0.16 | 4.76 ± 0.15
SVSQDFPGSNLNLLTNNSGTPKDH [ETS2] | 4.8 ± 0.38 | 4.83 ± 0.27
FTGELAESRQTEVVIRDIDERAME [KLHL20] | 4.69 ± 0.21 | 4.89 ± 0.33
DPAPLWGPPPAQGSPGDGGLQDQV [EMID1] | 5.22 ± 0.27 | 5.2 ± 0.26
AEQLRIELNAEKFKNSLLQKELKK [WEE1] | 3.88 ± 0.28 | 3.94 ± 0.42
CRKCIASSGCFMEYLENQVIKDKD [RNF180] | 2.42 ± 0.26 | 2.5 ± 0.41
LTGLFKGDKCHSLVGKPKIFIIQA [CASP6] | 2.83 ± 0.46 | 2.93 ± 0.65
SDSEANGFAERRIDKFGFIVGSQG [TBC1D10A] | 4.14 ± 0.35 | 4.07 ± 0.34
EKLATDTSTFEATSEGTLELQQRN [ZNF232] | 5.29 ± 0.22 | 5.41 ± 0.14
GLQSYQQALLRISLDKVQRSLGPR [SERTAD3] | 2.43 ± 0.27 | 2.26 ± 0.36
FYLPSSPNLSLASEDEEEYESGYA [SMG5] | 4.55 ± 0.067 | 4.59 ± 0.21
QLDWDELETNQQHFHALCHSLLVS [M1AP] | 2.3 ± 0.29 | 2.69 ± 0.45
PEGLDSDFLAVLSDYPSPDISPPI [SLA] | 4.08 ± 0.11 | 4.14 ± 0.097
PLSLYGQLLWREFFYTAATNNPRF [CRY1] | 2.79 ± 0.46 | 2.5 ± 0.72
TKADIGTPSNFQHIGHVGWDPNTG [WASL] | 3.81 ± 0.21 | 3.85 ± 0.18
NGKEFNNWFNVTGSDKCVFLKNTE [CD69] | 3.2 ± 0.31 | 3.08 ± 0.42
ESLEPDAQVLMLGQILELPWKEET [FANCE] | 4.17 ± 0.11 | 4.17 ± 0.33
EDGHRTSTSAVPNLFVPLNTNPKE [ADD1] | 4.89 ± 0.24 | 5.07 ± 0.11

Sequence | protein stability index (treatment: DMSO) | protein stability index (treatment: MLN4924 1 uM, 8 h)
GVDHTKMSLHGASGGHERSRDRRR [BTBD10] | 5.26 ± 0.27 | 5.3 ± 0.24
GLSQVLLRGGGQVLLGWTLHYFPF [POMT2] | 2.95 ± 0.26 | 2.97 ± 0.64
DKVGLITLSDWAAAVESVLHLGLP [PPEF2] | 2.5 ± 0.25 | 2.31 ± 0.64
IYKKYALQSAAGKDAAKQIAWIKD [PDS5B] | 2.03 ± 0.3 | 2.61 ± 0.44
AGRWLWGAQPCLLLPIVPLSWLVW [ADAMTS4] | 2.98 ± 1.5 | 3.24 ± 2.6
APAFRLSLKAKVSDNMSHLMVDFA [FSD1] | 2.28 ± 0.1 | 2.25 ± 0.12
LQNFLLHGTKNVTNSSSLRLPRQN [WSB1] | 2.89 ± 0.16 | 3 ± 0.23
SLSLRLPHQPVTAITRVSDRFSGE [SMTNL2] | 3.8 ± 0.28 | 4.16 ± 0.1
AVSCVFLAFVIVLLAHRLRRWHKS [PCDHGA10] | 2.33 ± 0.36 | 1.92 ± 0.23
MLLPQLCWLPLLAGLLPPVPAQKF [SMOC2] | 3.51 ± 0.69 | 3.67 ± 1.4
ISEHEHFTDFNATSALFWEQHDLV [CLPTM1] | 3.33 ± 0.27 | 3.38 ± 0.35
MLERIKHEKTVDIYGHVTLMRAQR [PTPRD] | 1.73 ± 0.22 | 2.16 ± 0.38
PEAISPDLVKKIRDFHRKILTLPE [TRIM15] | 2.51 ± 0.17 | 2.68 ± 0.37
MAAESLPFSFGTLSSWELEAWYED [DDIT3] | 3.21 ± 0.074 | 3.45 ± 0.23
TPPTPAPTSGIVGALMEVMQKRSK [WASL] | 4.55 ± 0.12 | 4.65 ± 0.25
LDSGIHSGATTTAPSLSGKGNPEE [CTNNB1] | 5.64 ± 0.29 | 5.54 ± 0.21
GWCIFVYNLSPEADESVLWQLFGP [ELAVL3] | 2.8 ± 1.4 | 3.7 ± 1.2
MGEPAGVAGTMESPFSPGLFHRLD [ATF6] | 3.58 ± 0.14 | 3.79 ± 0.36
LLSFLLLMDYIGINLATMNSCINP [EDNRA] | 2.58 ± 0.73 | 4.18 ± 0.46
STFSSGPSDKMKWCLRVNPKGLDD [SPOPL] | 2.73 ± 0.5 | 3 ± 0.47
LSINRYERKKNLTLALEALVQLRG [ALG2] | 2.25 ± 0.36 | 2.09 ± 0.2
RGHQNWVYSCAFSPDSSMLCSVGA [WSB1] | 2.07 ± 0.18 | 2.03 ± 0.23
VEECQAALQNKDTYEPFCKVPVIT [KCTD10] | 4.06 ± 0.15 | 4.12 ± 0.3

Sequence | protein stability index (treatment: DMSO) | protein stability index (treatment: MLN4924 1 uM, 8 h)
RAALISRRHLQFWKSHLKKVQKPL [RHOBTB1] | 2.22 ± 0.16 | 2.54 ± 0.34
EAAEAETAKDNGEAEDQEEKEDAE [SRPK2] | 5.55 ± 0.4 | 5.73 ± 0.29
DVEFLPVYHPSPEESRDPTLYANN [LPCAT4] | 4.88 ± 0.32 | 4.64 ± 0.054
TLLAVGCNDGRIVIWDFLTRGIAK [RBBP5] | 2.65 ± 0.51 | 2.55 ± 0.84
KLKGAEVTYMNMTAYNKGRLQSSF [PLD5] | 2.36 ± 0.22 | 2.72 ± 0.22
IEDSTGLNRPGPAPLSSRKHVLYV [TCF25] | 2.27 ± 0.45 | 2.35 ± 0.31
LLWAKFTNSDTPTSFNHMDSDKLS [TOR1AIP2] | 2.45 ± 0.3 | 2.54 ± 0.35
KAPYLCEATHEPAAARIRAQVPDT | 4.65 ± 0.4 | 4.2 ± 0.68
FPFSLLGLLALAIGLWGLAVKGSL [TSPAN10] | 3.33 ± 0.37 | 3.14 ± 0.27
QAALRAARLRHQELFRLRGIKAQV [NOP53] | 2.4 ± 0.19 | 2.86 ± 0.57
EPVAAEPKQSGSFRYLQGMLEAGE [PDLIM4] | 4.6 ± 0.11 | 4.6 ± 0.11
KTDFGSCLLQPPSCPNGMSAENGL [DLC1] | 3.94 ± 0.14 | 3.87 ± 0.19
CVSRNSHLTSVTSESEQEFLYKTA [CD207] | 3.34 ± 0.51 | 3.81 ± 0.17
GTKLIFRRRPRQKEAGLSQSHDDL [C2CD2L] | 4.03 ± 0.46 | 4.04 ± 0.3
PENQEYFEKHRWPPVWYLKEEDHY [RHOBTB2] | 3.42 ± 0.23 | 3.57 ± 0.41
LEAIRKQDLVELYLTNCEKLSAKS [ZER1] | 3.06 ± 0.21 | 3.11 ± 0.36
NYGADTNTRNYEGQTPLAVSISIS [ASB7] | 2.65 ± 0.45 | 2.77 ± 0.48
VCSVRGGEGRSRGSANDYKDTLGK [KRT71] | 4.68 ± 0.32 | 4.79 ± 0.18
VRNQQSLAVSNMGARSKGQCPEPP [PTPN9] | 4.3 ± 0.11 | 4.21 ± 0.39
QMTNIGVYVSNMTDKLVTPGKYFS [IQUB] | 2.31 ± 0.5 | 2.49 ± 0.28
PAHLYFQAHGSEGLTFQGLLPLTE [PLEKHN1] | 2.85 ± 0.045 | 2.9 ± 0.083
